Measurements as given in the RNAGym collection of RNA variant scans (doi:10.7554/elife.80360).

B1: Hammerhead Ribozyme (parent)
chain: ACCGGAUGUGCUUUCCGGUCUGAUGAGUCCGUGAGGACGAAACAG

Variants of: B1
Assay: self-cleavage, relative activity (ratio to wild type); higher = more cleavage; co-transcriptional

Variant	self-cleavage
U12C U28C	1.35
U12C U28G	0.543
U12C U32A	1.26
U12C U32C	1.05
U12C U32G	0.502
U12G	0.976
U12G A23C	0.459
U12G A23G	0.407
U12G A23U	0.317
U12G A26C	0.475
U12G A26G	0.346
U12G A26U	0.708
U12G A34C	0.841
U12G A34G	0.909
U12G A34U	0.897
U12G A37C	0.88
U12G A37G	1.02
U12G A37U	0.438
U12G A40C	0.366
U12G A40G	0.326
U12G A40U	0.376
U12G A41C	0.276
U12G A41G	0.339
U12G A41U	0.298

Variant	self-cleavage
U12G A42C	0.239
U12G A42G	0.356
U12G A42U	0.321
U12G A44C	0.499
U12G A44G	1.57
U12G A44U	0.565
U12G C15A	1.09
U12G C15G	0.819
U12G C15U	0.823
U12G C16A	1.18
U12G C16G	0.714
U12G C16U	0.968
U12G C20A	0.332
U12G C20G	0.32
U12G C20U	0.667
U12G C29A	0.643
U12G C29G	0.736
U12G C29U	0.541
U12G C30A	0.795
U12G C30G	0.706
U12G C30U	0.983
U12G C38A	0.711
U12G C38G	0.813
U12G C38U	1.08

Variant	self-cleavage
U12G C43A	0.362
U12G C43G	0.181
U12G C43U	0.43
U12G G17A	0.738
U12G G17C	0.436
U12G G17U	0.943
U12G G18A	0.583
U12G G18C	0.61
U12G G18U	0.998
U12G G22A	0.338
U12G G22C	0.326
U12G G22U	0.37
U12G G25A	0.316
U12G G25C	0.337
U12G G25U	0.315
U12G G27A	0.914
U12G G27C	0.433
U12G G27U	0.411
U12G G31A	1.2
U12G G31C	1.09
U12G G31U	1.11
U12G G33A	1.02
U12G G33C	0.972
U12G G33U	1.2

Variant	self-cleavage
U12G G35A	0.674
U12G G35C	0.444
U12G G35U	0.583
U12G G36A	0.518
U12G G36C	0.679
U12G G36U	0.471
U12G G39A	0.4
U12G G39C	0.424
U12G G39U	0.319
U12G G45A	0.719
U12G G45C	0.676
U12G G45U	0.716
U12G U13A	1.25
U12G U13C	0.879
U12G U13G	0.848
U12G U14A	0.832
U12G U14C	0.677
U12G U14G	0.961
U12G U19A	0.299
U12G U19C	0.524
U12G U19G	0.509
U12G U21A	0.455
U12G U21C	0.807
U12G U21G	0.334

Variant	self-cleavage
U12G U24A	1.13
U12G U24C	1.18
U12G U24G	0.795
U12G U28A	0.666
U12G U28C	1.02
U12G U28G	0.685
U12G U32A	0.696
U12G U32C	0.921
U12G U32G	0.813
U13A	1.31
U13A A23C	0.503
U13A A23G	0.441
U13A A23U	0.361
U13A A26C	0.564
U13A A26G	0.327
U13A A26U	0.976
U13A A34C	1.5
U13A A34G	1.04
U13A A34U	1.46
U13A A37C	1.21
U13A A37G	1.15
U13A A37U	0.908
U13A A40C	0.711
U13A A40G	0.287

Variant	self-cleavage
U13A A40U	0.379
U13A A41C	0.368
U13A A41G	0.311
U13A A41U	0.355
U13A A42C	0.314
U13A A42G	0.344
U13A A42U	0.339
U13A A44C	0.619
U13A A44G	1.8
U13A A44U	0.749
U13A C15A	0.926
U13A C15G	0.895
U13A C15U	0.907
U13A C16A	1.49
U13A C16G	1.27
U13A C16U	1.02
U13A C20A	0.446
U13A C20G	0.354
U13A C20U	0.681
U13A C29A	0.759
U13A C29G	0.922
U13A C29U	0.941
U13A C30A	1.31
U13A C30G	0.947

Variant	self-cleavage
U13A C30U	1.46
U13A C38A	0.808
U13A C38G	0.728
U13A C38U	1.5
U13A C43A	0.254
U13A C43G	0.335
U13A C43U	0.614
U13A G17A	1.16
U13A G17C	0.815
U13A G17U	1.02
U13A G18A	1.17
U13A G18C	0.777
U13A G18U	1.23
U13A G22A	0.298
U13A G22C	0.312
U13A G22U	0.381
U13A G25A	0.326
U13A G25C	0.327
U13A G25U	0.277
U13A G27A	0.873
U13A G27C	0.823
U13A G27U	0.53
U13A G31A	1.46
